Columns and labels:
AncSZ = experiment: phosphorylation enrichment, bacterial display (enrichment ratio); higher = better substrate or ligand; peptides without Tyr show the background
EPHB1 = EPHB1 (UniProt P54762); experiment: as above
EPHB2 = EPHB2 (UniProt P29323); experiment: as above
FGFR1 = FGFR1 (UniProt P11362); experiment: as above
FGFR3 = FGFR3 (UniProt P22607); experiment: as above
Fer (mouse) = experiment: as above
Fes = Fes (UniProt P07332); experiment: as above
Fyn = Fyn (UniProt P06241); experiment: as above
Sequence of Fyn (P06241 whole entry, looked up): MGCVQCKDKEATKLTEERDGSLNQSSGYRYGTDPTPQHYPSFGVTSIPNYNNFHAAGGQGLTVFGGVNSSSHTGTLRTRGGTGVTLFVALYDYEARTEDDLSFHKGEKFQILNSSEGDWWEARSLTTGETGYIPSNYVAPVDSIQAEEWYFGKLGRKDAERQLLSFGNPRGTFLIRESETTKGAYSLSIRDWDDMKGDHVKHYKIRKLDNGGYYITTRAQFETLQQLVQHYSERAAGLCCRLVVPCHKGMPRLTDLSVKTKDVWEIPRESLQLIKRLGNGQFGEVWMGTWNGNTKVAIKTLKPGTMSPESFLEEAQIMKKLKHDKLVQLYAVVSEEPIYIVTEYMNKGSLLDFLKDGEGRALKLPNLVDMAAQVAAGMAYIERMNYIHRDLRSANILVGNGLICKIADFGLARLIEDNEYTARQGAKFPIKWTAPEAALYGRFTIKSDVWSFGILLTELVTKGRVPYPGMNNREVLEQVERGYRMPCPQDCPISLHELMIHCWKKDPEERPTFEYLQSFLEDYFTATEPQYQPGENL

Hck = Hck (UniProt P08631); experiment: as above
Jak2 = Jak2 (UniProt O60674); experiment: as above
MERTK = MERTK (UniProt Q12866); experiment: as above
c-Abl (mouse) = experiment: as above
c-Src = experiment: as above
Grb2 SH2 = Grb2 SH2 (UniProt P62993); experiment: SH2 binding enrichment of the phosphorylated peptide, bacterial display (enrichment ratio); higher = better substrate or ligand; peptides without Tyr show the background
SHP2-C SH2 = experiment: as above
c-Src SH2 = experiment: as above
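Wherever SH2 binding enrichment of the phosphorylated peptide, bacterial display is given: peptide library displayed on the E. coli surface as eCPX fusions, selected cells deep-sequenced, score is each peptide's frequency after selection divided by its frequency in the input.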
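Wherever phosphorylation enrichment, bacterial display is given: 11-residue human phosphosite peptides and single-mutation variants displayed on the E. coli surface, counted by deep sequencing, each peptide's frequency after selection divided by its frequency in the unselected input library; frequency after pTyr selection over input frequency; kinase dosed for 20-30% of maximal phosphorylation in three min.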

Sequence of EPHB2 (P29323 whole entry, looked up): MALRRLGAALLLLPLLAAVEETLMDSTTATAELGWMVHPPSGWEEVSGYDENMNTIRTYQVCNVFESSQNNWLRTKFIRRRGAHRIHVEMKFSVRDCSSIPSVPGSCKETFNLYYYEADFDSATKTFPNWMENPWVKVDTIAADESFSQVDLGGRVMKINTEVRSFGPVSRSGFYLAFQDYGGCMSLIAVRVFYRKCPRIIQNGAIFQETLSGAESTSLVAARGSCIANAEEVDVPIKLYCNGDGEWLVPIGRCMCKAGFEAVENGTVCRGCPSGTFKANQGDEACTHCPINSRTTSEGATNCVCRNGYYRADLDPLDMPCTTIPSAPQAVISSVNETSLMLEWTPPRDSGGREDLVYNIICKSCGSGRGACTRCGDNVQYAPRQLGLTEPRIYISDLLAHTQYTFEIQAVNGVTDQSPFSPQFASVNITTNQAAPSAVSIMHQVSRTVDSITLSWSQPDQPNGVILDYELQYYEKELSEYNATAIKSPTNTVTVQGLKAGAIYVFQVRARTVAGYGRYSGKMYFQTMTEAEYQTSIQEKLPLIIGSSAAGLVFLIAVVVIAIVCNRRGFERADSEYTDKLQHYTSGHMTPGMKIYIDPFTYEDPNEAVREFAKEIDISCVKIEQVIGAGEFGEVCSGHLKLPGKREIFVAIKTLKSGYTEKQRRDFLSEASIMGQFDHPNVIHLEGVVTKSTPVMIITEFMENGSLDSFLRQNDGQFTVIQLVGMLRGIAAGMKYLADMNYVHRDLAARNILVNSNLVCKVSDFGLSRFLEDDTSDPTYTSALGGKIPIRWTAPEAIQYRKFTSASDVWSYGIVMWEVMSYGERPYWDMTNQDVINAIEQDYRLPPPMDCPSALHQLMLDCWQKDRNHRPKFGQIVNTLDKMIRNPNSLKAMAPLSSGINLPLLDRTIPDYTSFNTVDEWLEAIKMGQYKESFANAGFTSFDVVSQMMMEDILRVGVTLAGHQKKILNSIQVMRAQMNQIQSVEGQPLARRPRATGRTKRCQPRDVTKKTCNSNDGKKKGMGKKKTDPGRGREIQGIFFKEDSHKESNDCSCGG
Sequence of FGFR1 (P11362 whole entry, looked up): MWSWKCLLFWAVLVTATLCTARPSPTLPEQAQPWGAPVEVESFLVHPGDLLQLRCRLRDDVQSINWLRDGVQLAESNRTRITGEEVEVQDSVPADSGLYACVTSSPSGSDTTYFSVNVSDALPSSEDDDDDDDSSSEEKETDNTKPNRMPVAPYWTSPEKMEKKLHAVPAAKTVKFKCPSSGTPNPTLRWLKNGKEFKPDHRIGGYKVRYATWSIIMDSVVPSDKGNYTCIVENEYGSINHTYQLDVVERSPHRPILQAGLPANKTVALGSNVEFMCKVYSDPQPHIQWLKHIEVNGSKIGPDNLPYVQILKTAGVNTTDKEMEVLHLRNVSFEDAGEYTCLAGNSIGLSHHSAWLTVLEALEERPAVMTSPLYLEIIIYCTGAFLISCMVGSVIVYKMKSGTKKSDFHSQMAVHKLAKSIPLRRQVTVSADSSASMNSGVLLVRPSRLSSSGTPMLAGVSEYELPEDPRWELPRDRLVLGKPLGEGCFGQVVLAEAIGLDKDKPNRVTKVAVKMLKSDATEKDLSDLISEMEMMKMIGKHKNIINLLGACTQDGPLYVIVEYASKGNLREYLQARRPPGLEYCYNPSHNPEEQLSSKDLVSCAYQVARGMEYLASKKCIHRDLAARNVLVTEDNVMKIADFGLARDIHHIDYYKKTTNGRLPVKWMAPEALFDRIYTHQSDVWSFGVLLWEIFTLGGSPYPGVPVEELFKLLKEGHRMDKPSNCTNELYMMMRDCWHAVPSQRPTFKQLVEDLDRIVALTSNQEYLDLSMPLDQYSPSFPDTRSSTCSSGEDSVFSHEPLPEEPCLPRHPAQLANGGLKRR
Sequence of Fes (P07332 whole entry, looked up): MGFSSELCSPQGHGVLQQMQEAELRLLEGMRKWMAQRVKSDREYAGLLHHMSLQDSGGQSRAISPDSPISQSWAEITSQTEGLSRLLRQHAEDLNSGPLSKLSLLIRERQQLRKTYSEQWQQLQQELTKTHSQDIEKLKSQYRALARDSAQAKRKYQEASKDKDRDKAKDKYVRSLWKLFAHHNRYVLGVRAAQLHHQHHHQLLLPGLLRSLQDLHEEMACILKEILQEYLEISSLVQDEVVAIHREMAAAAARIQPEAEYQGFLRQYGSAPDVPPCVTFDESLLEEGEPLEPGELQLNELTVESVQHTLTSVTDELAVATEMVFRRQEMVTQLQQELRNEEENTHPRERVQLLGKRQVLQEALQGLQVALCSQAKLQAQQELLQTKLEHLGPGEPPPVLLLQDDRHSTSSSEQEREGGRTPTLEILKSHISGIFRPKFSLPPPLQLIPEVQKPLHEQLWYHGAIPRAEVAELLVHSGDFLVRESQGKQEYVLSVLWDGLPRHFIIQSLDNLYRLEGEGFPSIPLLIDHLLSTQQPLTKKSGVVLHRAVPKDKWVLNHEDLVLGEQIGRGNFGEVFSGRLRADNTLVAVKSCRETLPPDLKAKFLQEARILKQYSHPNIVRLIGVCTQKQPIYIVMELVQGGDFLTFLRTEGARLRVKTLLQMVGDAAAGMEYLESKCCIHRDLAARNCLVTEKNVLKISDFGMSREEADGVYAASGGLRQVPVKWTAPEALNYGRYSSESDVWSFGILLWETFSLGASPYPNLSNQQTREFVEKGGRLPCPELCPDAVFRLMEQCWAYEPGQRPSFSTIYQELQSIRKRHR
Sequence of EPHB1 (P54762 whole entry, looked up): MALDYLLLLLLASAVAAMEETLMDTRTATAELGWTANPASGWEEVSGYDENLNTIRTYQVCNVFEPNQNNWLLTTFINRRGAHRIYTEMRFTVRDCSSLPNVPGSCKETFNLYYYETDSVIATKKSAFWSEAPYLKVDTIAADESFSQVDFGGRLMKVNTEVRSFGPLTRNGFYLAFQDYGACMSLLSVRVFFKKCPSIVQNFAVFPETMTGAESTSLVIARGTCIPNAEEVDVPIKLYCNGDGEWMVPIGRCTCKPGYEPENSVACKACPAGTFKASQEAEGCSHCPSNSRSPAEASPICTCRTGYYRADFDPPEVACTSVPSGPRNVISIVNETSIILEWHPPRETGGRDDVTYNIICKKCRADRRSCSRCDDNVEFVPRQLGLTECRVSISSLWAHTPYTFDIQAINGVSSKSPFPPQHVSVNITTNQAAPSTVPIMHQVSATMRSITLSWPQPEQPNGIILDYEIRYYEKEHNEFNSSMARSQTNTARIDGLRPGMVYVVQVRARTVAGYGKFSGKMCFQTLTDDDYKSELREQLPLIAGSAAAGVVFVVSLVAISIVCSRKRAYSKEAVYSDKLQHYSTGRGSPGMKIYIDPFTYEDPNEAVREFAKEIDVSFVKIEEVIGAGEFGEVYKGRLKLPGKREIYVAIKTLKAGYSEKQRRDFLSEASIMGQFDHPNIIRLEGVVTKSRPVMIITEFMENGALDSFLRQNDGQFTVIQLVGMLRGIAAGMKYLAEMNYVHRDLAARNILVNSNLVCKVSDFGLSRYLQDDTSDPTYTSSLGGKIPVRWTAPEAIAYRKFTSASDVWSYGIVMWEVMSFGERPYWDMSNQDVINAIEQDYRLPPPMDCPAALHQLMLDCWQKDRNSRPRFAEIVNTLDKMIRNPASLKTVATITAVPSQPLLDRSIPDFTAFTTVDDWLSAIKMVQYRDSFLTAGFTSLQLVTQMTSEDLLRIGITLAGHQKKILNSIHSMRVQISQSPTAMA
Sequence of FGFR3 (P22607 whole entry, looked up): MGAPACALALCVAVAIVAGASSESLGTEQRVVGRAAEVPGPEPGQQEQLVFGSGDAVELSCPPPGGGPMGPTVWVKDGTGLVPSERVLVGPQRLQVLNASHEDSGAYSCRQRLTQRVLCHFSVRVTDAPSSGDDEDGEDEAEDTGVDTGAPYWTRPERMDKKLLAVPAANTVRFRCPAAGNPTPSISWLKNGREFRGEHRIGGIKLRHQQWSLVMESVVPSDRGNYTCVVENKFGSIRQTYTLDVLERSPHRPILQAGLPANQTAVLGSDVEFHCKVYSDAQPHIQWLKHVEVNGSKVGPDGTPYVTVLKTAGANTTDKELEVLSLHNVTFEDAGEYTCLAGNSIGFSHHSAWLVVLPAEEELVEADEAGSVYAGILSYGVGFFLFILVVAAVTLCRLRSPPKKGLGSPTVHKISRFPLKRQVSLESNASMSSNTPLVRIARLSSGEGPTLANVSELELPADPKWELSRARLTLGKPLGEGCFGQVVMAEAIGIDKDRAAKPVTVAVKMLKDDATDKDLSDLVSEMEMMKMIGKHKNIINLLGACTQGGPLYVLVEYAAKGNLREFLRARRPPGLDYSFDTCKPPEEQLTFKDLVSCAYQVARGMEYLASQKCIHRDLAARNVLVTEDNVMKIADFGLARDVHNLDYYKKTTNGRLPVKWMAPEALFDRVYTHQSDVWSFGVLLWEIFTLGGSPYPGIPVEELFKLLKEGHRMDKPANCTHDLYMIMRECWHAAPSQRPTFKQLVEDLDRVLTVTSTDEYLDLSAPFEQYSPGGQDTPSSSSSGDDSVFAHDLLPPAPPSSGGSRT

| Sequence | SH2 binding enrichment (Grb2 SH2) | SH2 binding enrichment (SHP2-C SH2) | SH2 binding enrichment (c-Src SH2) | phosphorylation enrichment (AncSZ) | phosphorylation enrichment (EPHB1) | phosphorylation enrichment (EPHB2) | phosphorylation enrichment (FGFR1) | phosphorylation enrichment (FGFR3) | phosphorylation enrichment (Fer (mouse)) | phosphorylation enrichment (Fes) | phosphorylation enrichment (Fyn) | phosphorylation enrichment (Hck) | phosphorylation enrichment (Jak2) | phosphorylation enrichment (MERTK) | phosphorylation enrichment (c-Abl (mouse)) | phosphorylation enrichment (c-Src) |
| --- | --- | --- | --- | --- | --- | --- | --- | --- | --- | --- | --- | --- | --- | --- | --- | --- |
| SSSGAYGGGYG [KRT19_Y61] | 0.861 | 0.639 | 0.506 | 0.454 | 0.365 | 0.403 | 0.353 | 0.367 | 0.364 | 0.526 | 0.359 | 0.434 | 0.346 | 0.34 | 0.386 | 0.377 |
| SEDSEYFRAFE [CASQ2_Y178_K180R_YF] | 0.874 | 0.559 | 0.439 | 1.99 | 0.633 | 0.591 | 0.586 | 0.854 | 0.511 | 1.48 | 0.545 | 0.524 | 1.26 | 0.476 | 1.31 | 0.693 |
| ASFGPNTRVQS [FOXL2_Y258_Y258N_YF] | 0.8 | 0.267 | 0.542 | 0.567 | 0.445 | 0.399 | 0.479 | 0.442 | 0.447 | 0.619 | 0.466 | 0.433 | 0.565 | 0.365 | 0.525 | 0.394 |
| DDEVFYSPRSL [OTC_Y317] | 0.774 | 0.647 | 0.47 | 1.67 | 0.597 | 0.597 | 0.504 | 0.847 | 1.57 | 1.36 | 0.574 | 2 | 1.36 | 0.592 | 1.22 | 0.87 |
| ISDNACQYMLT [MYH7_Y162_Y162C] | 0.752 | 0.748 | 0.511 | 1 | 0.629 | 0.583 | 0.623 | 0.687 | 0.587 | 1.05 | 0.546 | 0.518 | 1.18 | 0.75 | 0.679 | 0.811 |
| LNCDRYSAGLL [PDE6A_Y275_V277A] | 0.755 | 0.595 | 0.419 | 0.919 | 0.487 | 0.481 | 0.396 | 0.612 | 0.432 | 0.834 | 0.512 | 0.39 | 0.87 | 0.378 | 0.673 | 0.448 |
| TLARLYHRDST [LRIG1_Y1029_P1031R] | 0.963 | 0.608 | 0.552 | 0.761 | 0.501 | 0.539 | 0.563 | 0.729 | 0.71 | 0.844 | 0.565 | 0.409 | 0.61 | 0.522 | 0.761 | 0.449 |
| DRLASYRDKVR [KRT12_Y139_L140R] | 0.878 | 0.947 | 1.09 | 0.466 | 0.294 | 0.338 | 0.27 | 0.425 | 0.366 | 0.447 | 0.372 | 0.327 | 0.587 | 0.332 | 0.442 | 0.347 |
| EFAAGYNVKFD [GPX4_Y123] | 0.707 | 0.727 | 0.503 | 0.739 | 0.425 | 0.397 | 0.697 | 0.544 | 0.483 | 0.862 | 0.465 | 0.449 | 0.502 | 0.461 | 0.389 | 0.419 |
| KDGNGYISVAE [CALM3_Y100_A103V] | 0.685 | 0.746 | 2.5 | 0.771 | 0.362 | 0.485 | 0.404 | 0.473 | 0.442 | 0.859 | 0.407 | 0.462 | 0.671 | 0.418 | 0.679 | 0.598 |
| EAIAKYDFKAT [GRB2_Y7] | 0.775 | 0.679 | 0.465 | 0.658 | 0.488 | 0.412 | 0.587 | 0.528 | 0.327 | 0.827 | 0.408 | 0.387 | 0.597 | 0.396 | 0.618 | 0.393 |
| PVLSLYASGRT [ACTA1_Y145_A140P] | 0.841 | 0.926 | 0.484 | 1.14 | 0.637 | 0.548 | 0.328 | 0.703 | 0.539 | 1.19 | 0.616 | 0.768 | 1.39 | 0.752 | 1.31 | 0.573 |
| YECKWYIPLTD [BCR_Y756_D752E] | 0.704 | 0.665 | 0.477 | 1.48 | 0.843 | 0.774 | 0.812 | 1.1 | 0.657 | 1.56 | 0.469 | 0.585 | 1.48 | 0.922 | 1 | 0.576 |
| SSREGYVRHHN [FAM83B_Y433_S435R] | 0.956 | 0.573 | 0.592 | 0.482 | 0.309 | 0.445 | 0.416 | 0.473 | 0.501 | 0.435 | 0.377 | 0.387 | 0.672 | 0.409 | 0.451 | 0.38 |
| TSEASYFKSLN [NGEF_Y288_YF] | 0.56 | 0.589 | 0.4 | 0.972 | 0.438 | 0.599 | 0.563 | 0.487 | 0.535 | 0.717 | 0.684 | 0.359 | 0.626 | 0.481 | 0.51 | 0.677 |
| EIVHRYVELLD [AP1S3_Y87] | 0.91 | 1.11 | 21.6 | 0.892 | 0.483 | 0.53 | 0.41 | 0.673 | 0.499 | 1.06 | 0.464 | 0.504 | 0.922 | 0.506 | 0.744 | 0.498 |
| NSAFFYKTAEE [CCT6B_Y250_G247A] | 1.19 | 0.923 | 0.565 | 0.962 | 0.521 | 0.472 | 0.452 | 0.696 | 0.47 | 1.23 | 0.524 | 0.496 | 0.927 | 0.439 | 0.593 | 0.38 |
| GFITSYREEEQ | 0.681 | 0.722 | 0.502 | 1.19 | 0.63 | 0.775 | 0.468 | 0.631 | 0.488 | 1.14 | 0.494 | 0.517 | 1.04 | 0.489 | 0.769 | 0.48 |
| EIIPFYGMSTY [FNDC3B_Y175] | 0.742 | 0.539 | 4.96 | 0.751 | 0.685 | 0.681 | 0.454 | 0.709 | 0.88 | 0.875 | 0.864 | 1.1 | 0.768 | 0.687 | 0.818 | 0.902 |
| GLIPAYHRFIM [NMNAT1_Y64_V67F] | 1.39 | 1.37 | 1.44 | 0.734 | 0.521 | 0.423 | 0.553 | 0.687 | 0.418 | 0.822 | 0.535 | 0.494 | 1.31 | 0.593 | 0.619 | 0.616 |

Continued, in another order:

| SH2 binding enrichment (Grb2 SH2) | SH2 binding enrichment (SHP2-C SH2) | SH2 binding enrichment (c-Src SH2) | Sequence | phosphorylation enrichment (AncSZ) | phosphorylation enrichment (EPHB1) | phosphorylation enrichment (EPHB2) | phosphorylation enrichment (FGFR1) | phosphorylation enrichment (FGFR3) | phosphorylation enrichment (Fer (mouse)) | phosphorylation enrichment (Fes) | phosphorylation enrichment (Fyn) | phosphorylation enrichment (Hck) | phosphorylation enrichment (Jak2) | phosphorylation enrichment (MERTK) | phosphorylation enrichment (c-Abl (mouse)) | phosphorylation enrichment (c-Src) |
| --- | --- | --- | --- | --- | --- | --- | --- | --- | --- | --- | --- | --- | --- | --- | --- | --- |
| 1.02 | 0.768 | 0.663 | EPNSRYTYKLE [USH2A_Y3745] | 0.684 | 0.537 | 0.46 | 0.438 | 0.534 | 0.27 | 0.895 | 0.492 | 0.439 | 0.628 | 0.384 | 0.753 | 0.501 |
| 0.763 | 0.825 | 0.521 | VTPSEYLEIVR [TMEM130_Y412_E407V] | 0.969 | 1.21 | 0.618 | 0.557 | 0.736 | 0.45 | 0.859 | 0.51 | 0.751 | 0.762 | 0.387 | 0.681 | 0.44 |
| 0.978 | 0.407 | 0.394 | PMDGEYFTLQI [TP53_Y327_L323M] | 4.04 | 1.5 | 0.753 | 12 | 9.07 | 1.57 | 1.95 | 4.35 | 2.79 | 4.86 | 0.604 | 2.02 | 5.21 |
| 1.56 | 1.44 | 1.57 | CITIHYNYMCN [TP53_Y234_T230I] | 0.923 | 0.605 | 0.515 | 0.474 | 0.662 | 0.569 | 1.01 | 0.423 | 0.44 | 0.881 | 0.389 | 0.582 | 0.381 |
| 1.08 | 1.5 | 1.67 | AIKSFYAALID [RYR1_Y2426_M2423K] | 0.882 | 1.25 | 1.23 | 0.553 | 0.628 | 0.479 | 0.981 | 0.504 | 0.758 | 0.667 | 2.53 | 0.719 | 0.481 |
| 0.872 | 0.663 | 0.507 | ERRLIYTSDPK [VPS13D_Y864] | 0.563 | 0.307 | 0.431 | 0.486 | 0.372 | 0.43 | 0.64 | 0.444 | 0.39 | 0.586 | 0.444 | 0.472 | 0.437 |
| 1.02 | 0.827 | 0.641 | NFFDLYGGEKF [PTPN11_Y66_D61N_YF] | 0.91 | 0.518 | 0.634 | 0.419 | 0.61 | 0.553 | 1.02 | 1.79 | 3.54 | 0.826 | 0.437 | 0.581 | 2.73 |
| 0.644 | 0.526 | 0.471 | IPPRRYFRSGV [STAMBP_Y36] | 0.778 | 0.531 | 0.523 | 0.414 | 0.61 | 0.548 | 0.676 | 0.639 | 0.573 | 0.714 | 0.608 | 0.717 | 0.61 |
| 0.849 | 1.64 | 0.611 | PGVNYYFRVSA | 1.11 | 0.715 | 0.706 | 0.787 | 1.01 | 0.466 | 1.08 | 0.466 | 0.469 | 1.26 | 0.448 | 0.79 | 0.331 |
| 1.42 | 1.43 | 1.5 | SYCYRYRCAAQ [SUMF1_Y344_R349Q] | 0.768 | 0.382 | 0.424 | 0.499 | 0.464 | 0.346 | 0.599 | 0.419 | 0.5 | 0.599 | 0.515 | 0.471 | 0.399 |
| 0.827 | 0.578 | 0.418 | STSKTYVISQT [RBBP6_Y87_R91Q] | 0.591 | 0.391 | 0.418 | 0.431 | 0.429 | 0.328 | 0.694 | 0.446 | 0.372 | 0.559 | 0.44 | 0.615 | 0.466 |
| 0.713 | 0.549 | 0.504 | AALSAYAPQRP [PTPRN2_Y249_A251P] | 0.853 | 0.54 | 0.527 | 0.605 | 0.584 | 0.541 | 1.08 | 0.733 | 0.529 | 0.803 | 0.543 | 0.791 | 0.521 |
| 0.892 | 0.923 | 0.402 | FKPENYRRLDI [VHL_Y175_V170F] | 0.599 | 0.367 | 0.425 | 0.414 | 0.544 | 0.376 | 0.738 | 0.32 | 0.383 | 0.747 | 0.41 | 0.63 | 0.312 |

— the supplement of paper PMC10065799, “High-throughput profiling of sequence recognition by tyrosine kinases and SH2 domains using bacterial peptide display” (eLife, 2023)
